The text below walks through data of patent US20210228629A1.

For assay [1], the target named is BCMA expressed on K562 Very High-BCMA cells (UniProt Q02223). As to the kind of experiment: cell-based or functional assay.
Assay [2] concerns the target BCMA protein (UniProt Q02223). As to the kind of experiment: cell-based or functional assay.

B1: anti-BCMA CAR (co-stimulatory domain not specified for the experiment) (protein, part only; not given: CAR hinge, transmembrane, signaling domains, part only)
chain, part: DIVLTQSPPSLAMSLGKRATISCRASESVTILGSHLIHWYQQKPGQPPTLLIQLASNVQTGVPARFSGSGSRTDFTLTIDPVEEDDVAVYYCLQSRTIPRTFGGGTKLEIKGSTSGSGKPGSGEGSTKGQIQLVQSGPELKKPGETVKISCKASGYTFTDYSINWVKRAPGKGLKWMGWINTETREPAYAYDFRGRFAFSLETSASTAYLQINNLKYEDTATYFCALDYSYAMDYWGQGTSVTVSS
With B1, the CD107a+ cells (%), degranulation after 18 hours in assay [1] came to 3.82%; in assay [2], 22.2%.
